Data on 10 sequences can be found in patent US20090162369A1, “SYNTHETIC CHIMERIC PEPTIDES” (priority 2007, published 2009).

Assay [1] has as its target p145 (Streptococcus pyogenes serotype M5, UniProt P02977). The following applies: FIG. 3. The protocol: The purified anti-TN peptide antibodies were tested for their ability to bind to p145.
The test system of assay [2] is GAS. The following applies: cited from earlier work.
In assay [3] the test system is multiple isolates of GAS. The following applies: Pruksakorn et al., 1994a; cited from earlier work.
Assay [4] concerns B10.BR mice. In words: Peptide-specific serum IgG titres of B10.BR mice immunised with peptides conjugated to diphtheria toxoid. Type of assay: in vivo. The following applies: peptides conjugated to DT. The text has this: FIG. 9: The geometric mean of peptide-specific serum IgG titres of B10.BR mice immunised with different peptides conjugated to diphtheria toxoid (DT). Control mice were immunised with vehicle (PBS). Five mice were immunised per group and error bars show the standard error of the mean (SEM). The highest titres were obtained after primary immunisation plus two booster injections. Although titres had decreased 43 days after the final boost (Day 71), they remained reasonably high.
Female B10.BR mice were immunized with TN18, TN19, J18 and J19 peptides conjugated to diphtheria toxoid (DT). The following immunization protocol was used.
The peptide specific titres in the murine sera samples on day 35, after primary immunization and two boosters, were analyzed.
The self-peptide titres throughout the immunization protocol were analyzed at day 20, day 27, day 35 and day 71.

As to LRRDLDAEDEAKKQVEKALEC [TN peptide 3], the “binding affinity of purified anti-TN peptide antibodies for p145” value (“binding affinity” for short) in assay [1] is listed as “highest binding affinities”.

As for LRRDLDAEREAKKQVERALEC [TN peptide 5], the “binding affinity” value in assay [1] is recorded as “highest binding affinities”.

Regarding LRRDLDASNEAKKQVEMALEC [TN peptide 14], the “binding affinity” value in assay [1] is given as “highest binding affinities”.

With LRRDLDASREAKKQVEKALE [p145], the “inhibition of in vitro killing mediated by human sera” value in assay [2] is recorded as “can inhibit in vitro killing mediated by human sera”. In addition, the “opsonisation and killing of GAS by mouse antibodies raised against the peptide” value in assay [3] is “can opsonise and kill multiple isolates of GAS”.

Turning to LRRDLDASREAKNQVEMALEC [TN peptide 19], the “binding affinity” value in assay [1] was “highest binding affinities”.

For the sequence LRRDLDASREAKNQVERALEC [TN peptide 18], the “binding affinity” value in assay [1] is “highest binding affinities”.

LRRDLDAVNEAKKQVEKALEC [TN peptide 7]: in assay [1], the “binding affinity” value is reported as “highest binding affinities”.

Consider LRRDLDAVREAKKQVEMALEC [TN peptide 11], for which the “binding affinity” value in assay [1] was “highest binding affinities”.

Take QAEDKVKQSREAKNQVEMALKQLEDKVQ [J19]: in assay [4], the “immunogenicity compared with the peptides disclosed in WO96/11944” value is recorded as “improved immunogenicity”.

As to QAEDKVKQSREAKNQVERALKQLEDKVQ [J18], the “immunogenicity compared with the peptides disclosed in WO96/11944” value in assay [4] is “improved immunogenicity”.
